Experimental data as given in patent US20250011747.

Test system: LMWK (natural substrate of KLK1)

Kb (KLK1 extracted from porcine pancreas), sequence (chain, as listed by the source): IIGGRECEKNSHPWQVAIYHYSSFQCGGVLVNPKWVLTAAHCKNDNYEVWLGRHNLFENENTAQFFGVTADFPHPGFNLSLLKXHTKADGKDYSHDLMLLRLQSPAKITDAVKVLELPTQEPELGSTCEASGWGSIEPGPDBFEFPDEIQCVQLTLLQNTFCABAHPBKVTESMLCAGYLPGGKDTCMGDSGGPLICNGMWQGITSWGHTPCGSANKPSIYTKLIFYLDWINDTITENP
PEG-Kb (pancreatic kallikrein I for injection, PEG10K-modified Kb), sequence (chain, as listed by the source): as above

Work on “PEG-Kb (pancreatic kallikrein I for injection, PEG10K-modified Kb)” yielded a Bradykinin production µg/mg(enzyme), molar ratio of substrate to enzyme 1:1 (µg/mg(enzyme)) of 11.3, a Bradykinin production µg/mg(enzyme), molar ratio of substrate to enzyme 5:1 (µg/mg(enzyme)) of 44.6 and a Bradykinin production µg/mg(enzyme), molar ratio of substrate to enzyme 10:1 (µg/mg(enzyme)) of 80. It also gave a Bradykinin production µg/mg(enzyme), molar ratio of substrate to enzyme 15:1 (µg/mg(enzyme)) of 104 and a Bradykinin production µg/mg(enzyme), molar ratio of substrate to enzyme 20:1 (µg/mg(enzyme)) of 120.
Substance “Kb (KLK1 extracted from porcine pancreas)” has a Bradykinin production µg/mg(enzyme), molar ratio of substrate to enzyme 1:1 (µg/mg(enzyme)) of 20.9, a Bradykinin production µg/mg(enzyme), molar ratio of substrate to enzyme 5:1 (µg/mg(enzyme)) of 90.8 and a Bradykinin production µg/mg(enzyme), molar ratio of substrate to enzyme 10:1 (µg/mg(enzyme)) of 166. The Bradykinin production µg/mg(enzyme), molar ratio of substrate to enzyme 15:1 (µg/mg(enzyme)) was 218 and the Bradykinin production µg/mg(enzyme), molar ratio of substrate to enzyme 20:1 (µg/mg(enzyme)) was 288.
